Holding throughout (assay): Specificity assay, fraction of remaining proteolytic activity
Common to all, as to type: biochemical

Experiment [1] deals with T1, plasma kallikrein (Homo sapiens, UniProt P03952).
T1 construct: Human plasma kallikrein and Factor XIIa were purchased; purchased Enzyme Research Laboratories, Inc. (South Bend, Ind)
The settings on record: 100 nM inhibitor; 3.5 nM enzyme.

Experiment [2] concerns the target T2, Factor XIa (Homo sapiens, UniProt P03951).
T2 construct: purchased Haematologic Technologies Inc. (Essex Jct., VT)
Conditions: 100 nM inhibitor; […] enzyme.

Experiment [3] addresses T3, Factor XIIa (Homo sapiens, UniProt P00748).
T3 construct: purchased Enzyme Research Laboratories, Inc. (South Bend, Ind)
T3 sequence (P00748 20-372 limits assumed): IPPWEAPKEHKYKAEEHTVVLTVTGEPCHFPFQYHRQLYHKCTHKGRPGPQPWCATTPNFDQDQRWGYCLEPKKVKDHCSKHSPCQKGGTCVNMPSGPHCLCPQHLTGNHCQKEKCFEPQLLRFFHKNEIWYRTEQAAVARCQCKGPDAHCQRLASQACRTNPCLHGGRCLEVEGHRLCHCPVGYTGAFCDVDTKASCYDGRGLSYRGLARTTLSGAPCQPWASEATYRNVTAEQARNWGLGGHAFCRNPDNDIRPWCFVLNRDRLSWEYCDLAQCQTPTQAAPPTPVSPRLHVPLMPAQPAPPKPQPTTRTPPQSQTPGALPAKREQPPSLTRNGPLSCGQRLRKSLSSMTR
T3 sequence (P00748 373-615 limits assumed): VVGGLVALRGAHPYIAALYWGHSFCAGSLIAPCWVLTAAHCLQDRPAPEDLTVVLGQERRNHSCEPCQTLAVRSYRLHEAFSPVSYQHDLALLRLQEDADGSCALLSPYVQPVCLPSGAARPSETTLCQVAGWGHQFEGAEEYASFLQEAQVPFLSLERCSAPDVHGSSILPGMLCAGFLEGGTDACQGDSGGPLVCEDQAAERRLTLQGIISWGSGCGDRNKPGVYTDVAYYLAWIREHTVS
Conditions: 100 nM inhibitor; 14 nM enzyme.

The target of experiment [4] is T4, thrombin (Homo sapiens, UniProt P00734).
T4 construct: purchased Haematologic Technologies Inc. (Essex Jct., VT)
The settings on record: 100 nM inhibitor; 6.2 nM enzyme.

The target in experiment [5] is T5, TF-FVIIa (Homo sapiens, UniProt P08709).
T5 construct: purchased Haematologic Technologies Inc. (Essex Jct., VT) for FVIIa; TF made in house; host or cells: TF1-243: E. coli
T5 sequence (P08709 61-212 limits assumed): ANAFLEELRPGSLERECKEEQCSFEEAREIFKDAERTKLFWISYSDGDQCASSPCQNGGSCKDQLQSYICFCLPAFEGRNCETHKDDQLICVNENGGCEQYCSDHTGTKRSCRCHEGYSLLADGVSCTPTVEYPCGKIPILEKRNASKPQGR
T5 sequence (P08709 213-466 limits assumed): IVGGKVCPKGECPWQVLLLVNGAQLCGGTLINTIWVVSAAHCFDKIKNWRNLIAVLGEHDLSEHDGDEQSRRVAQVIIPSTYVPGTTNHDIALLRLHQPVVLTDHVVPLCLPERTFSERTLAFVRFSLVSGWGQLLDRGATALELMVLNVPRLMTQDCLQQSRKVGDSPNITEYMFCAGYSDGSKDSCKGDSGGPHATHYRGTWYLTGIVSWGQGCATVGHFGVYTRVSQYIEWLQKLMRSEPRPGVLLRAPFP
T5 sequence (P13726 33-275 partner limits assumed): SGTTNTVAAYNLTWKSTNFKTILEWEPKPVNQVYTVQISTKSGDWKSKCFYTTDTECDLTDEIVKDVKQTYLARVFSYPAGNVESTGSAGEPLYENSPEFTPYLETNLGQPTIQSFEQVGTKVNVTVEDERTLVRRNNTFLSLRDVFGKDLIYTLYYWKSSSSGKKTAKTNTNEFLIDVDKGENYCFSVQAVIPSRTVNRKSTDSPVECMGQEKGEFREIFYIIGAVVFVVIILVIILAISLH
Conditions: 100 nM inhibitor; TF 77 nM, FVIIa 14 nM.

The target in experiment [6] is T6, plasmin (Homo sapiens, UniProt P00747).
T6 construct: Human plasmin, S-2302, S-2251, and S-2366 were purchased from Kabi Vitrum (Sweden); purchased Kabi Vitrum (Sweden)
T6 sequence (P00747 97-580 limits assumed): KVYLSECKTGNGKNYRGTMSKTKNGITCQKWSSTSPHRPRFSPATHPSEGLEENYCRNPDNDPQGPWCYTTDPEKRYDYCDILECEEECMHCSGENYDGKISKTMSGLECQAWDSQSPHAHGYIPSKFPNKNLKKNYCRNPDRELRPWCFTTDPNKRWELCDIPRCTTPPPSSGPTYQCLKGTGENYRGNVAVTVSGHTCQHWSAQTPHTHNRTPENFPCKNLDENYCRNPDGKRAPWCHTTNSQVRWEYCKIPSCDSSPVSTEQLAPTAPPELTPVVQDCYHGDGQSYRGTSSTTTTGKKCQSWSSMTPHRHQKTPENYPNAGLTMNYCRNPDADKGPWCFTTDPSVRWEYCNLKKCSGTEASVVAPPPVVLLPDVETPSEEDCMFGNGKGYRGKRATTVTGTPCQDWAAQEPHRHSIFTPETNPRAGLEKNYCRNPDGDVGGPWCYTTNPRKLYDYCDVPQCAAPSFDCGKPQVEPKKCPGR
T6 sequence (P00747 581-810 limits assumed): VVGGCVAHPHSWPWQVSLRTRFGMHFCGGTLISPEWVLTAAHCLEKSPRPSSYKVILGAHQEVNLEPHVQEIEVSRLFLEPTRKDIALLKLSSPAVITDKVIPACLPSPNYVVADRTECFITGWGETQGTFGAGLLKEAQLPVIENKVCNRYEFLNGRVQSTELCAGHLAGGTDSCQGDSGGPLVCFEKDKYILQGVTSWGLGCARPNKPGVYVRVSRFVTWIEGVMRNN
Conditions: 100 nM inhibitor; 32 nM enzyme.

Experiment [7] has as its target T7, activated protein C (Homo sapiens, UniProt P04070).
T7 construct: purchased Haematologic Technologies Inc. (Essex Jct., VT)
Conditions: 100 nM inhibitor; 7.6 nM enzyme.

For experiment [8], the target named is T8, Factor Xa (Homo sapiens, UniProt P00742).
T8 construct: purchased Haematologic Technologies Inc. (Essex Jct., VT)
T8 sequence (P00742 41-179 limits assumed): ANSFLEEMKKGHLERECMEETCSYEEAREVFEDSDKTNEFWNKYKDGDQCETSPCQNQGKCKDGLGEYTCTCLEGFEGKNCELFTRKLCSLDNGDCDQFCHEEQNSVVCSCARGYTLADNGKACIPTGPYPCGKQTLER
T8 sequence (P00742 235-488 limits assumed): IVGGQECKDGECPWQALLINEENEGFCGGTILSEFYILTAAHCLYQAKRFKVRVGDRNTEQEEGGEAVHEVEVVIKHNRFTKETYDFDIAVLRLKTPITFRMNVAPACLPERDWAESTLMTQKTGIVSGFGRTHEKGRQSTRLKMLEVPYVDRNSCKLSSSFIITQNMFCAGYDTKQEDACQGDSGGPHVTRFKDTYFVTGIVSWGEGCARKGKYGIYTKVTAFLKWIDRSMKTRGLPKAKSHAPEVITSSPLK
The settings on record: 100 nM inhibitor; 2.5 nM enzyme.

T7 sequence (P04070 43-197 limits assumed): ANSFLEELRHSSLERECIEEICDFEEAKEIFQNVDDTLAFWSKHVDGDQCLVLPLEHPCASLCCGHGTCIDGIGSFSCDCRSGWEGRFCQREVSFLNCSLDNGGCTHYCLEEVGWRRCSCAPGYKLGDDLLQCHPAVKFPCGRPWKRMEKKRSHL
T7 sequence (P04070 212-461 limits assumed): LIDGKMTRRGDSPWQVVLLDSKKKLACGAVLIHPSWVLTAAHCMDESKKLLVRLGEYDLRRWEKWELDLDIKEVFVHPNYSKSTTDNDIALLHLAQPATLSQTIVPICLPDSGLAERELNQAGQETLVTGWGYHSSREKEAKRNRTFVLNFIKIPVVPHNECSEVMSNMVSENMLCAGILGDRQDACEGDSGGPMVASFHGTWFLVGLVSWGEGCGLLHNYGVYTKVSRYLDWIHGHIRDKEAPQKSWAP
T2 sequence (P03951 19-387 limits assumed): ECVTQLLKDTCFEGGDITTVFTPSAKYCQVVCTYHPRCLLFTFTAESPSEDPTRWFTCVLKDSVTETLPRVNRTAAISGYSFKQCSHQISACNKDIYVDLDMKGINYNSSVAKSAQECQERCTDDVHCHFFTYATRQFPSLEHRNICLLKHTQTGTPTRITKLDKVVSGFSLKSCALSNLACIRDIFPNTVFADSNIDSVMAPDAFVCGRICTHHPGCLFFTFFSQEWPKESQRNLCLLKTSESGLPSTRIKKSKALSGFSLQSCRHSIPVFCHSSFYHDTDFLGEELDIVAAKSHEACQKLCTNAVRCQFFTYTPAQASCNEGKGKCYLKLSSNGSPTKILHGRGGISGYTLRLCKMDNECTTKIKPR
T2 sequence (P03951 388-625 limits assumed): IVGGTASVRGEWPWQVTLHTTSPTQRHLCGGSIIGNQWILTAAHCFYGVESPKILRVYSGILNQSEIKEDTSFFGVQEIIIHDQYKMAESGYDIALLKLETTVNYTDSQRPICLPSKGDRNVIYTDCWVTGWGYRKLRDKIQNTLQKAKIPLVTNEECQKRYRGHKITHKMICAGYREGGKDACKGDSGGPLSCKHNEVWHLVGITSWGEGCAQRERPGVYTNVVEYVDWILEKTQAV
T1 sequence (P03952 20-390 limits assumed): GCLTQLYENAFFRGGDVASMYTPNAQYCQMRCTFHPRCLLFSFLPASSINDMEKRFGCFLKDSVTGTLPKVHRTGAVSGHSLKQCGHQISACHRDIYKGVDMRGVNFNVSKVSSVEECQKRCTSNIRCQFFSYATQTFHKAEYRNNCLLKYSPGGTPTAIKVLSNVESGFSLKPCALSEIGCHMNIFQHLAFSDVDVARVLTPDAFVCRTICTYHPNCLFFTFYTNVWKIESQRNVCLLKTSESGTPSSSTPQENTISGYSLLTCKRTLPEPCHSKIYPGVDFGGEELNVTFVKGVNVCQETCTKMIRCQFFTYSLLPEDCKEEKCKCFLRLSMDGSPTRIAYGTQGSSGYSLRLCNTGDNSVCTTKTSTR
T1 sequence (P03952 391-638 limits assumed): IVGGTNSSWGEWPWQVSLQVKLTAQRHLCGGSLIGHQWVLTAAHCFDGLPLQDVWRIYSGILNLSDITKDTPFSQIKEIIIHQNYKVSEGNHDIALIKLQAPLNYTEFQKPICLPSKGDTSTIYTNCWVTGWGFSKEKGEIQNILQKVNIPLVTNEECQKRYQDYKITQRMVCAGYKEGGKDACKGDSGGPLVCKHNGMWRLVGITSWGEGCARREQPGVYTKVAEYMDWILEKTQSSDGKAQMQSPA

Regarding “KALI-8: APPI Kunitz domain mutant, R1 LGHCRAAIPR2 FR3 (SEQ ID NO: 3) (VREVCSEQAELGHCRAAIPRWYFDVTEGKCAPFFYGGCGGNRNNFDTEEYCAAVCGSA)”, in experiment [1], the “fraction of remaining proteolytic activity, plasma kallikrein” value stood at 0.00. Moreover, in experiment [2], the “fraction of remaining proteolytic activity, Factor XIa” value came to 0.00. Moreover, in experiment [3], the “fraction of remaining proteolytic activity, Factor XIIa” value is recorded as 1.00. For the same substance, in experiment [4], the “fraction of remaining proteolytic activity, thrombin” value is listed as 0.99. For the same substance, the “fraction of remaining proteolytic activity, TF·Factor VIIa” value in experiment [5] was 0.94. The “fraction of remaining proteolytic activity, plasmin” value in experiment [6] was 0.83. Also, in experiment [7], the “fraction of remaining proteolytic activity, activated protein C” value turned out to be 0.89.
Regarding “KALI-46: APPI Kunitz domain mutant, R1 EGRCRASILR2 FR3 (SEQ ID NO: 33) (VREVCSEQAEEGRCRASILRWYFDVTEGKCAPFFYGGCGGNRNNFDTEEYCAAVCGSA)”, the “fraction of remaining proteolytic activity, plasma kallikrein” value in experiment [1] is 0.00. Further, the “fraction of remaining proteolytic activity, Factor XIa” value in experiment [2] was determined as 0.00. For the same substance, the “fraction of remaining proteolytic activity, Factor XIIa” value in experiment [3] was found to be 0.97. Moreover, the “fraction of remaining proteolytic activity, thrombin” value in experiment [4] was determined as 0.99. Moreover, the “fraction of remaining proteolytic activity, TF·Factor VIIa” value in experiment [5] stood at 0.86. Besides, the “fraction of remaining proteolytic activity, plasmin” value in experiment [6] is recorded as 0.64. Moreover, the “fraction of remaining proteolytic activity, activated protein C” value in experiment [7] was determined as 0.83.
Consider “KALI-48: APPI Kunitz domain mutant, R1 TGHCRAAIPR2 FR3 (SEQ ID NO: 2) (VREVCSEQAETGHCRAAIPRWYFDVTEGKCAPFFYGGCGGNRNNFDTEEYCAAVCGSA)”, for which, in experiment [1], the “fraction of remaining proteolytic activity, plasma kallikrein” value worked out at 0.00. Further, the “fraction of remaining proteolytic activity, Factor XIa” value in experiment [2] is 0.01. Also, the “fraction of remaining proteolytic activity, Factor XIIa” value in experiment [3] was 0.99. Moreover, the “fraction of remaining proteolytic activity, Factor Xa” value in experiment [8] was determined as 0.55. For the same substance, the “fraction of remaining proteolytic activity, thrombin” value in experiment [4] was 0.99. Also, the “fraction of remaining proteolytic activity, TF·Factor VIIa” value in experiment [5] is recorded as 0.95. Further, the “fraction of remaining proteolytic activity, plasmin” value in experiment [6] came out at 0.23. The “fraction of remaining proteolytic activity, activated protein C” value in experiment [7] is recorded as 0.92.
As to “KALI-13: APPI Kunitz domain mutant, R1 SGHCRAAIPR2 FR3 (SEQ ID NO: 1) (VREVCSEQAESGHCRAAIPRWYFDVTEGKCAPFFYGGCGGNRNNFDTEEYCAAVCGSA)”, the “fraction of remaining proteolytic activity, plasma kallikrein” value in experiment [1] is on record as 0.00. Further, in experiment [2], the “fraction of remaining proteolytic activity, Factor XIa” value came to 0.01. Besides, in experiment [3], the “fraction of remaining proteolytic activity, Factor XIIa” value stood at 1.00. Besides, in experiment [8], the “fraction of remaining proteolytic activity, Factor Xa” value was determined as 0.97. For the same substance, in experiment [4], the “fraction of remaining proteolytic activity, thrombin” value came out at 0.96. Further, the “fraction of remaining proteolytic activity, TF·Factor VIIa” value in experiment [5] worked out at 0.96. Besides, the “fraction of remaining proteolytic activity, plasmin” value in experiment [6] was 0.65. The “fraction of remaining proteolytic activity, activated protein C” value in experiment [7] turned out to be 0.90.
With “KALI-30: APPI Kunitz domain mutant, R1 EGHCRAAILR2 FR3 (SEQ ID NO: 5) (VREVCSEQAEEGHCRAAILRWYFDVTEGKCAPFFYGGCGGNRNNFDTEEYCAAVCGSA)”, the “fraction of remaining proteolytic activity, plasma kallikrein” value in experiment [1] is 0.00. For the same substance, the “fraction of remaining proteolytic activity, Factor XIa” value in experiment [2] is on record as 0.00. In experiment [3], the “fraction of remaining proteolytic activity, Factor XIIa” value turned out to be 0.92. The “fraction of remaining proteolytic activity, Factor Xa” value in experiment [8] was 0.68. In experiment [4], the “fraction of remaining proteolytic activity, thrombin” value came to 1.00. The “fraction of remaining proteolytic activity, plasmin” value in experiment [6] is on record as 0.53. The “fraction of remaining proteolytic activity, activated protein C” value in experiment [7] is recorded as 0.81.

(Values after patent US5786328A, “Use of kunitz type plasma kallikrein inhibitors” (Genentech, Inc., priority 1995, dated 1998).)
